# Experimental data taken from article PMC6754605 (Proceedings of the National Academy of Sciences of the …, 2019).
# Molecular target: the molecule itself
# Assay: SEC
row,Protein,binding result
1,"mouse SAA3 F24S/M25S double mutant (natural protein, UniProt P04918 19-122, looked up) QRWVQSSKEAGQGSRDMWRAYSDMKKANWKNSDKYFHARGNYDAARRGPGGAWAAKVISDAREAVQKFTGHGAEDSRADQFANEWGRSGKDPNHFRPAGLPKRY",binds
2,"mouse SAA3 W71S/V75S double mutant (natural protein, UniProt P04918 19-122, looked up) QRWVQFMKEAGQGSRDMWRAYSDMKKANWKNSDKYFHARGNYDAARRGPGGASAAKSISDAREAVQKFTGHGAEDSRADQFANEWGRSGKDPNHFRPAGLPKRY",binds
